According to PMC3193538:
[ ]: non-standard residue; d: D form.

Target: human integrin protein αvβ3 (human) (UniProt P06756)
Test: SPR

koff	Binder
0.00155 s⁻¹	cyclo(RGD[dF]C) (also: conjugated to G5 PAMAM dendrimer, 7 peptides per dendrimer) [G5-7RGD (generation 5 PAMAM dendrimer displaying 7 cyclic RGD peptides)]
0.00132 s⁻¹	cyclo(RGD[dF]C) (also: conjugated to G5 PAMAM dendrimer, 2 peptides per dendrimer) [G5-2RGD (generation 5 PAMAM dendrimer displaying 2 cyclic RGD peptides)]
0.00254 s⁻¹	cyclo(RGD[dF]C) (also: conjugated to G5 PAMAM dendrimer, 10 peptides per dendrimer) [G5-10RGD (generation 5 PAMAM dendrimer displaying 10 cyclic RGD peptides)]
0.00136 s⁻¹	cyclo(RGD[dF]C) (also: conjugated to G5 PAMAM dendrimer, 3 peptides per dendrimer) [G5-3RGD (generation 5 PAMAM dendrimer displaying 3 cyclic RGD peptides)]
